Tests used:
Test in all cases: cell-based or functional assay
TALE(Ngn2)-NLS-CRY2PHR = target: TALE(Ngn2)-NLS-CRY2PHR
[1] = target: LITE 1.9.1 TALE-CIB1 construct (mutated NLS, Δ318-334, AD5 NES)
[2] = target: LITE2.0 TALE-CIB1 component

CIB1-NLS-VP64_2A_GFP
Neurog2 expression (qPCR) after 0.5 h of light stimulation, vs YFP samples (TALE(Ngn2)-NLS-CRY2PHR): 5 fold
Neurog2 expression (qPCR), peak at 12 h of light stimulation, vs YFP samples (TALE(Ngn2)-NLS-CRY2PHR): 19 fold

CRY2PHR-NLS-VP64_2A_GFP
background mRNA increase (no light), LITE1.9.1 [1]: 1.06 fold
light induction (light/no-light), LITE1.9.1 [1]: 4 fold

LITE2.0 CRY2PHR-VP64 component
light induction (light/no-light ratio of Neurog2 expression), LITE2.0 [2]: 20.4

Reference: patent US20190390204A1
